Results on 1 molecule are retold here after PMC4190070 (Nature structural & molecular biology, 2014).

For the test, the target named is T1, SA2–Scc1 cohesin subcomplex (SA2 80–1060, Scc1 281–420), purified recombinant (human, UniProt Q8N3U4;O60216).
T1 sequence 1: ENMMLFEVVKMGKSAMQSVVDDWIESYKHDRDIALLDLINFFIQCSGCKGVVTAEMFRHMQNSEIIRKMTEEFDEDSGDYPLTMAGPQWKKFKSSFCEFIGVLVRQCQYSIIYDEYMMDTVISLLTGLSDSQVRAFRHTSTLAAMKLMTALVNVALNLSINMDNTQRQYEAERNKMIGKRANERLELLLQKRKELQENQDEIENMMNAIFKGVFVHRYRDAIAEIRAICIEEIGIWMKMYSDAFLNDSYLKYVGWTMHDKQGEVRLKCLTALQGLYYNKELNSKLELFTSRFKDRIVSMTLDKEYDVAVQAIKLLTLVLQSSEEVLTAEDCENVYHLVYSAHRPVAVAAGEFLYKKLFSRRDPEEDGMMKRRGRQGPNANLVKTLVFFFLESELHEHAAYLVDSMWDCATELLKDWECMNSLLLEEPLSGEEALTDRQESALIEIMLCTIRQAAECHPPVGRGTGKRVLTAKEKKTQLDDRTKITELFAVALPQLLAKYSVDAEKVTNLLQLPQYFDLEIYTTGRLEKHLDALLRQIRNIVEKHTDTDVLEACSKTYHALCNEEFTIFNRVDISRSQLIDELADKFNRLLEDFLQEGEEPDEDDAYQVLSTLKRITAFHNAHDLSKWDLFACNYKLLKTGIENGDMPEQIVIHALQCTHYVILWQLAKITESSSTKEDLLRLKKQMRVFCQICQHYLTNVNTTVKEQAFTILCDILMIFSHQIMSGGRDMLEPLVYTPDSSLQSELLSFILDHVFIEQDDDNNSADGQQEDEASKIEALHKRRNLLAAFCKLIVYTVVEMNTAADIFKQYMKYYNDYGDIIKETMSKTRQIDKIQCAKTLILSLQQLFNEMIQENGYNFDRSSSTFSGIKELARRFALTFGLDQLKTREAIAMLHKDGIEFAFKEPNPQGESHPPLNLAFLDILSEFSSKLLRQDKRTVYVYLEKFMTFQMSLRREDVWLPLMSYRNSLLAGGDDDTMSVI
T1 sequence 2: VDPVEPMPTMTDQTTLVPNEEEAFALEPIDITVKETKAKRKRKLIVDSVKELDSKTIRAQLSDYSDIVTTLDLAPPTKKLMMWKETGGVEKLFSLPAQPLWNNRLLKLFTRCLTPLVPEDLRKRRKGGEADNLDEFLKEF
As to the kind of experiment: ITC. A general note: In ITC the heat of successive injections is recorded.

As to KSENKKTVPQKKMHKSVSSNDAYNFNLEEGVHLTPFRQKVSC [unphosphorylated Sgo1 peptide (residues 313–353)], the Kd turned out to be 618 nM and the “stoichiometry N” value came to 1.

By Kd is commonly meant the constant that tells how readily two partners part at equilibrium. A word on the stoichiometry N: it is the number of molecules, sites or subunits per partner or assembly.
